Results as given in patent US20190233519A1.

What was measured:
CTLA-4-His protein = CTLA-4-His protein (UniProt P16410); test: SPR, antibody captured by Fc, CTLA-4-His as analyte
[1] = target: biotin-labeled hCTLA-4/Fc protein (UniProt P16410); test: FACS competition, biotin hCTLA-4-Fc on CHO cells expressing human B7-1
biotin-labeled hCTLA-4/Fc protein, sequence (P16410 37-161): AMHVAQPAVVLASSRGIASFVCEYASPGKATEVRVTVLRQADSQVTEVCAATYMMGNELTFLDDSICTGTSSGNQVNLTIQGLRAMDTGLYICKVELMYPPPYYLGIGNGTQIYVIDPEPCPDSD

CTLA-4-His protein, sequence (P16410 37-161 limits assumed): as the sequence (P16410 37-161) above

Q: Which Kd (CTLA-4-His protein) does the source give for ipilimumab (YERVOY®) (antibody) here?
A: 17.3 nM

Q: What about the IC50 [1] of the same substance?
A: 8.5 nM
